According to PMC4089486, “Structural and biochemical analyses of alanine racemase from the multidrug-resistant Clostridium difficile strain 630” (Acta Crystallographica Section D: Biological Crystallography, 2014):

Experiments:
C[C@@H](N)C(=O)O = experiment: chiral HPLC of alanine enantiomers, initial rates; format: biochemical, Clostridioides difficile; details: D-Ala to L-Ala, 50 mM sodium borate pH 8.5, WT preparation partly cleaved at position 271
Excerpt: (§1) chiral HPLC of alanine enantiomers, initial rates on CdAlr (C. difficile alanine racemase; CdAlrWT)
C[C@H](N)C(=O)O = experiment: chiral HPLC of alanine enantiomers, initial rates; format: biochemical, Clostridioides difficile; details: L-Ala to D-Ala, 50 mM sodium borate pH 8.5, WT preparation partly cleaved at position 271
Excerpt: as §1

[1] = molecular target: Clostridium difficile strain 630 alanine racemase, recombinant wild type (Clostridium difficile strain 630); experiment: SEC-MALS

Substance	Km (C[C@@H](N)C(=O)O)	Vmax (C[C@@H](N)C(=O)O)	kcat (C[C@@H](N)C(=O)O)	Km (C[C@H](N)C(=O)O)	kcat (C[C@H](N)C(=O)O)	stoichiometry N [1]
CdAlr (C. difficile alanine racemase; CdAlrWT) (Clostridioides difficile 630)	7 mM	26.7 µmol/min/mg	19.2 s⁻¹	17.6 mM	59.3 s⁻¹	–
Clostridium difficile strain 630 alanine racemase, recombinant wild type (from UniProt A0AC59G415 1-385) (enzyme)	–	–	–	–	–	2
